Test results from US20260217779.
Substitutions are numbered along the chain they refer to.

Assays:
[1] = target: T1, hCXCL11.0023-G1T4k.one//VHn-G1T4h.one.H435R
T1 chain 1: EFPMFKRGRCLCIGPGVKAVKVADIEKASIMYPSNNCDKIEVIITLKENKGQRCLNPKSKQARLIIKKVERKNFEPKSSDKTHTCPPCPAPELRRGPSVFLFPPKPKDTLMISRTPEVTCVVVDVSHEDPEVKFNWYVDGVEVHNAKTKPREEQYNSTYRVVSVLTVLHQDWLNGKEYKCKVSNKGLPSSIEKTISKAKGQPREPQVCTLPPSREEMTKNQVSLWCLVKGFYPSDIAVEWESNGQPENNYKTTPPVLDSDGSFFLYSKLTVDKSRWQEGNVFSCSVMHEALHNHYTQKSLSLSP
T1 chain 2: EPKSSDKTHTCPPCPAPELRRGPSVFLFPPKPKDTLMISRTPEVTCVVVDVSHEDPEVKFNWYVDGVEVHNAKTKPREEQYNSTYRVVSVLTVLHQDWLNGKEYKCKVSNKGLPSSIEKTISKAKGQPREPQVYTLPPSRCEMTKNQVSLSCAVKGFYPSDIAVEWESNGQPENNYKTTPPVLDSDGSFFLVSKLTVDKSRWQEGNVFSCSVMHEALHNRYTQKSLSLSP

[2] = target: T2, hITIP0021-G1T4k.one//VHn-G1T4h.one.H435R
T2 chain 1: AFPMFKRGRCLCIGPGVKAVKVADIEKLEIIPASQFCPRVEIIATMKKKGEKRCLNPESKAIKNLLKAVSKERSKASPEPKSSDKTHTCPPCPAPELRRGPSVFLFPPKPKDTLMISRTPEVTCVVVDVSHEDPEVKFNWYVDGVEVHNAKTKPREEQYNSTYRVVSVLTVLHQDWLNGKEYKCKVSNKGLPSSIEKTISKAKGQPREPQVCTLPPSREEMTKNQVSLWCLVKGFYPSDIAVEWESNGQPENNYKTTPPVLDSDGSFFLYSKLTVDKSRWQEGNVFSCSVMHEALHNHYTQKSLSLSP
T2 chain 2: T1 chain 2

[3] = target: T3, hCXCL11.0036-G1T4k.one//VHn-G1T4h.one.H435R
T3 chain 1: T1 chain 1 with E1T
T3 chain 2: T1 chain 2

[4] = target: T4, hITIP0035-G1T4k.one//VHn-G1T4h.one.H435R
T4 chain 1: T2 chain 1 with A1S
T4 chain 2: T1 chain 2

[5] = target: T5, hCXCL11.0030-G1T4k.one//VHn-G1T4h.one.H435R
T5 chain 1: T1 chain 1 with E1M
T5 chain 2: T1 chain 2

[6] = target: T6, hITIP0039-G1T4k.one//VHn-G1T4h.one.H435R
T6 chain 1: T2 chain 1 with A1Y
T6 chain 2: T1 chain 2

[7] = target: T7, hCXCL11.0035-G1T4k.one//VHn-G1T4h.one.H435R
T7 chain 1: T1 chain 1 with E1S
T7 chain 2: T1 chain 2

[8] = target: T8, hCXCL11-G1T4k.one//VHn-G1T4h.one.H435R
T8 chain 1: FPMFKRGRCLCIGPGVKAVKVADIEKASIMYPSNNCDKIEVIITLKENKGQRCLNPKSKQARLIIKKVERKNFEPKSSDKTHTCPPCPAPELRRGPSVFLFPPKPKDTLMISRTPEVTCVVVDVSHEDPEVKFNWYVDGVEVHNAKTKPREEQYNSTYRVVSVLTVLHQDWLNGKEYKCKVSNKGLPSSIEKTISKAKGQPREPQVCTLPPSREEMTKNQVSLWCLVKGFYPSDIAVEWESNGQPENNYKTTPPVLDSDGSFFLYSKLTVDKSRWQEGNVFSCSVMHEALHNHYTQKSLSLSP
T8 chain 2: T1 chain 2

B1: human dipeptidyl peptidase IV (human DPPIV, hDPPIV) (Biolegend, 764102) (protein)
chain: NKGTDDATADSRKTYTLTDYLKNTYRLKLYSLRWISDHEYLYKQENNILVFNAEYGNSSVFLENSTFDEFGHSINDYSISPDGQFILLEYNYVKQWRHSYTASYDIYDLNKRQLITEERIPNNTQWVTWSPVGHKLAYVWNNDIYVKIEPNLPSYRITWTGKEDIIYNGITDWVYEEEVFSAYSALWWSPNGTFLAYAQFNDTEVPLIEYSFYSDESLQYPKTVRVPYPKAGAVNPTVKFFVVNTDSLSSVTNATSIQITAPASMLIGDHYLCDVTWATQERISLQWLRRIQNYSVMDICDYDESSGRWNCLVARQHIEMSTTGWVGRFRPSEPHFTLDGNSFYKIISNEEGYRHICYFQIDKKDCTFITKGTWEVIGIEALTSDYLYYISNEYKGMPGGRNLYKIQLSDYTKVTCLSCELNPERCQYYSVSFSKEAKYYQLRCSGPGLPLYTLHSSVNDKGLRVLEDNSALDKMLQNVQMPSKKLDFIILNETKFWYQMILPPHFDKSKKYPLLLDVYAGPCSQKADTVFRLNWATYLASTENIIVASFDGRGSGYQGDKIMHAINRRLGTFEVEDQIEAARQFSKMGFVDNKRIAIWGWSYGGYVTSMVLGSGSGVFKCGIAVAPVSRWEYYDSVYTERYMGLPTPEDNLDHYRNSTVMSRAENFKQVEYLLIHGTADDNVHFQQSAQISKALVDVGVDFQAMWYTDEDHGIASSTAHQHIYTHMSHFIKQCFSLP
cleavage by hDPPIV (LC/MS mass) [1]: showed no mass change suggestive of peptide bond cleavage by hDPPIV treatment
cleavage by hDPPIV (LC/MS mass) [2]: showed no mass change suggestive of peptide bond cleavage by hDPPIV treatment
cleavage by hDPPIV (LC/MS mass) [3]: showed no mass change suggestive of peptide bond cleavage by hDPPIV treatment
cleavage by hDPPIV (LC/MS mass) [4]: showed no mass change suggestive of peptide bond cleavage by hDPPIV treatment
cleavage by hDPPIV (LC/MS mass) [5]: showed no mass change suggestive of peptide bond cleavage by hDPPIV treatment
cleavage by hDPPIV (LC/MS mass) [6]: showed no mass change suggestive of peptide bond cleavage by hDPPIV treatment
cleavage by hDPPIV (LC/MS mass) [7]: showed no mass change suggestive of peptide bond cleavage by hDPPIV treatment
cleavage by hDPPIV (LC/MS mass) [8]: DPPIV treatment reduced each of the masses
